Reference: US20210070819A1 (INSERM INSTITUT NATIONAL DE LA SANT ET DE LA RECHERCHE M …, published 2021)

Assays:
HLA-A*02:01 = target: T1, HLA-A*02:01 (human); assay: experimental HLA-A2 peptide binding assay, format not described (data not shown)
T1 construct: also called HLA-A2; A2

[1] = target: T2, biotin-tagged HLA-A*03:01 monomers (immunAware) (human, biotin tag); assay: flow cytometry bead assay: biotinylated HLA-A*03:01 monomer folded with peptide, captured on streptavidin beads, detected with anti-β2-microglobulin BBM.1; 1.2 nM complex (data not shown)
T2 construct: Bought monomers folded around the test peptide; also called HLA-A3; A3

binding result (HLA-A*02:01)	binding result [1]	Binder
binds	–	FLSGAVNRL (also called SCG-009186-194) [SCG5-009186-194]
–	binds	RLKPSLVGK [SCG5-009193-201]
binds	–	YLQGQRLDNV [SCG5186-195]
